Test results as given in patent US20180155451A1 (published 2018).

T1: FcγRIIb extracellular domain with C-terminal His tag (human, UniProt P31994 43-217)
T1 construct: extracellular domain; expressed in FreeStyle293 cells; analyte in the Biacore assay; also called FcgRIIb; 2b; not shown: His tag at the C terminus
T1 sequence (looked up): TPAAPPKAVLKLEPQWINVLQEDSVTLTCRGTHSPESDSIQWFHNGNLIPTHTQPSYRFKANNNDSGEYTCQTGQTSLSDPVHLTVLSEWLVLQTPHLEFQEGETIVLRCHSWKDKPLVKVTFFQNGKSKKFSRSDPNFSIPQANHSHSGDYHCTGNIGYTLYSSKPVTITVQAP


How the values were obtained:
[1] = molecular target: T2, FcγRIa extracellular domain with C-terminal His tag (human, UniProt P12314 16-292); test: SPR Biacore, relative FcγRIa binding vs GpH7-A5/GpH7-B3/GpL16-k0
T2 construct: extracellular domain; also called FcgRI; CD64; not shown: His tag at the C terminus
T2 sequence (P12314 16-292): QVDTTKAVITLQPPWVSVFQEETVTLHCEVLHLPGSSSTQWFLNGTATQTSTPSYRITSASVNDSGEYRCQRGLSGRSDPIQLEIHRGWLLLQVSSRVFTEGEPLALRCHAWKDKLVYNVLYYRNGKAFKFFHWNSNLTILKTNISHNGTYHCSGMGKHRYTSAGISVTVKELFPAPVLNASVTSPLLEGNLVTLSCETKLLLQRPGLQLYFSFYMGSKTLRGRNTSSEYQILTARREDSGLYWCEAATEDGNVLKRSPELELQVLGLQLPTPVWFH

[2] = molecular target: T1, FcγRIIb extracellular domain with …; test: SPR (Biacore), captured antibody, FcγRIIb analyte; binding relative to GpH7-B3/GpL16-k0 = 100

Binder | He/Con_1a [1] | Ho/Con_2b [2]
GpH7-A5/GpH7-B3 variant S337_15Y/GpL16-k0 (antibody, human IgG1, kappa, mutation in one H chain only; also called He Ab S337_15Y; S337Y) heavy 1: not shown heavy 2: not shown light: DIVMTQSPLSLPVTPGEPASISCQASESLVHSNRNTYLHWYLQKPGQSPQLLIYKVSNRFSGVPDRFSGSGSGTDFTLKISRVEAEDVGVYYCSQNTHVPPTFGQGTKVEIERTVAAPSVFIFPPSDEQLKSGTASVVCLLNNFYPREAKVQWKVDNALQSGNSQESVTEQDSKDSTYSLSSTLTLSKADYEKHKVYACEVTHQGLSSPVTKSFNRGEC | 104 % of HeCon Ab (=100) | 
GpH7-B3 variant K326_07I/GpL16-k0 (antibody, human IgG1, kappa, homodimerized; mutation in both H chains; also called Ho Ab K326_07I) heavy: not shown light: DIVMTQSPLSLPVTPGEPASISCQASESLVHSNRNTYLHWYLQKPGQSPQLLIYKVSNRFSGVPDRFSGSGSGTDFTLKISRVEAEDVGVYYCSQNTHVPPTFGQGTKVEIERTVAAPSVFIFPPSDEQLKSGTASVVCLLNNFYPREAKVQWKVDNALQSGNSQESVTEQDSKDSTYSLSSTLTLSKADYEKHKVYACEVTHQGLSSPVTKSFNRGEC |  | 170 % of control
GpH7-A5/GpH7-B3 variant T335_05P/GpL16-k0 (antibody, human IgG1, kappa, mutation in one H chain only; also called He Ab T335_05P; T335P) heavy 1: not shown heavy 2: not shown light: DIVMTQSPLSLPVTPGEPASISCQASESLVHSNRNTYLHWYLQKPGQSPQLLIYKVSNRFSGVPDRFSGSGSGTDFTLKISRVEAEDVGVYYCSQNTHVPPTFGQGTKVEIERTVAAPSVFIFPPSDEQLKSGTASVVCLLNNFYPREAKVQWKVDNALQSGNSQESVTEQDSKDSTYSLSSTLTLSKADYEKHKVYACEVTHQGLSSPVTKSFNRGEC | 106 % of HeCon Ab (=100) | 
GpH7-A5/GpH7-B3 variant T335_11K/GpL16-k0 (antibody, human IgG1, kappa, mutation in one H chain only; also called He Ab T335_11K; T335K) heavy 1: not shown heavy 2: not shown light: DIVMTQSPLSLPVTPGEPASISCQASESLVHSNRNTYLHWYLQKPGQSPQLLIYKVSNRFSGVPDRFSGSGSGTDFTLKISRVEAEDVGVYYCSQNTHVPPTFGQGTKVEIERTVAAPSVFIFPPSDEQLKSGTASVVCLLNNFYPREAKVQWKVDNALQSGNSQESVTEQDSKDSTYSLSSTLTLSKADYEKHKVYACEVTHQGLSSPVTKSFNRGEC | 111 % of HeCon Ab (=100) | 
GpH7-A5/GpH7-B3 variant T335_07I/GpL16-k0 (antibody, human IgG1, kappa, mutation in one H chain only; also called He Ab T335_07I; T335I) heavy 1: not shown heavy 2: not shown light: DIVMTQSPLSLPVTPGEPASISCQASESLVHSNRNTYLHWYLQKPGQSPQLLIYKVSNRFSGVPDRFSGSGSGTDFTLKISRVEAEDVGVYYCSQNTHVPPTFGQGTKVEIERTVAAPSVFIFPPSDEQLKSGTASVVCLLNNFYPREAKVQWKVDNALQSGNSQESVTEQDSKDSTYSLSSTLTLSKADYEKHKVYACEVTHQGLSSPVTKSFNRGEC | 109 % of HeCon Ab (=100) | 
GpH7-A5/GpH7-B3 variant T335_08L/GpL16-k0 (antibody, human IgG1, kappa, mutation in one H chain only; also called He Ab T335_08L; T335L) heavy 1: not shown heavy 2: not shown light: DIVMTQSPLSLPVTPGEPASISCQASESLVHSNRNTYLHWYLQKPGQSPQLLIYKVSNRFSGVPDRFSGSGSGTDFTLKISRVEAEDVGVYYCSQNTHVPPTFGQGTKVEIERTVAAPSVFIFPPSDEQLKSGTASVVCLLNNFYPREAKVQWKVDNALQSGNSQESVTEQDSKDSTYSLSSTLTLSKADYEKHKVYACEVTHQGLSSPVTKSFNRGEC | 115 % of HeCon Ab (=100) | 
GpH7-A5/GpH7-B3 variant T335_09D/GpL16-k0 (antibody, human IgG1, kappa, mutation in one H chain only; also called He Ab T335_09D; T335D) heavy 1: not shown heavy 2: not shown light: DIVMTQSPLSLPVTPGEPASISCQASESLVHSNRNTYLHWYLQKPGQSPQLLIYKVSNRFSGVPDRFSGSGSGTDFTLKISRVEAEDVGVYYCSQNTHVPPTFGQGTKVEIERTVAAPSVFIFPPSDEQLKSGTASVVCLLNNFYPREAKVQWKVDNALQSGNSQESVTEQDSKDSTYSLSSTLTLSKADYEKHKVYACEVTHQGLSSPVTKSFNRGEC | 108 % of HeCon Ab (=100) | 
GpH7-A5/GpH7-B3 variant S337_20W/GpL16-k0 (antibody, human IgG1, kappa, mutation in one H chain only; also called He Ab S337_20W; S337W) heavy 1: not shown heavy 2: not shown light: DIVMTQSPLSLPVTPGEPASISCQASESLVHSNRNTYLHWYLQKPGQSPQLLIYKVSNRFSGVPDRFSGSGSGTDFTLKISRVEAEDVGVYYCSQNTHVPPTFGQGTKVEIERTVAAPSVFIFPPSDEQLKSGTASVVCLLNNFYPREAKVQWKVDNALQSGNSQESVTEQDSKDSTYSLSSTLTLSKADYEKHKVYACEVTHQGLSSPVTKSFNRGEC | 105 % of HeCon Ab (=100) | 
GpH7-B3 variant A327_09D/GpL16-k0 (antibody, human IgG1, kappa, homodimerized; mutation in both H chains; also called Ho Ab A327_09D) heavy: not shown light: DIVMTQSPLSLPVTPGEPASISCQASESLVHSNRNTYLHWYLQKPGQSPQLLIYKVSNRFSGVPDRFSGSGSGTDFTLKISRVEAEDVGVYYCSQNTHVPPTFGQGTKVEIERTVAAPSVFIFPPSDEQLKSGTASVVCLLNNFYPREAKVQWKVDNALQSGNSQESVTEQDSKDSTYSLSSTLTLSKADYEKHKVYACEVTHQGLSSPVTKSFNRGEC |  | 175 % of control
GpH7-A5/GpH7-B3 variant Y300_12R/GpL16-k0 (antibody, human IgG1, kappa, mutation in one H chain only; also called He Ab Y300_12R; Y300R) heavy 1: not shown heavy 2: not shown light: DIVMTQSPLSLPVTPGEPASISCQASESLVHSNRNTYLHWYLQKPGQSPQLLIYKVSNRFSGVPDRFSGSGSGTDFTLKISRVEAEDVGVYYCSQNTHVPPTFGQGTKVEIERTVAAPSVFIFPPSDEQLKSGTASVVCLLNNFYPREAKVQWKVDNALQSGNSQESVTEQDSKDSTYSLSSTLTLSKADYEKHKVYACEVTHQGLSSPVTKSFNRGEC | 105 % of HeCon Ab (=100) | 
GpH7-A5/GpH7-B3 variant T335_15Y/GpL16-k0 (antibody, human IgG1, kappa, mutation in one H chain only; also called He Ab T335_15Y; T335Y) heavy 1: not shown heavy 2: not shown light: DIVMTQSPLSLPVTPGEPASISCQASESLVHSNRNTYLHWYLQKPGQSPQLLIYKVSNRFSGVPDRFSGSGSGTDFTLKISRVEAEDVGVYYCSQNTHVPPTFGQGTKVEIERTVAAPSVFIFPPSDEQLKSGTASVVCLLNNFYPREAKVQWKVDNALQSGNSQESVTEQDSKDSTYSLSSTLTLSKADYEKHKVYACEVTHQGLSSPVTKSFNRGEC | 107 % of HeCon Ab (=100) | 
GpH7-A5/GpH7-B3 variant T335_12R/GpL16-k0 (antibody, human IgG1, kappa, mutation in one H chain only; also called He Ab T335_12R; T335R) heavy 1: not shown heavy 2: not shown light: DIVMTQSPLSLPVTPGEPASISCQASESLVHSNRNTYLHWYLQKPGQSPQLLIYKVSNRFSGVPDRFSGSGSGTDFTLKISRVEAEDVGVYYCSQNTHVPPTFGQGTKVEIERTVAAPSVFIFPPSDEQLKSGTASVVCLLNNFYPREAKVQWKVDNALQSGNSQESVTEQDSKDSTYSLSSTLTLSKADYEKHKVYACEVTHQGLSSPVTKSFNRGEC | 113 % of HeCon Ab (=100) | 
GpH7-A5/GpH7-B3 variant T335_04F/GpL16-k0 (antibody, human IgG1, kappa, mutation in one H chain only; also called He Ab T335_04F; T335F) heavy 1: not shown heavy 2: not shown light: DIVMTQSPLSLPVTPGEPASISCQASESLVHSNRNTYLHWYLQKPGQSPQLLIYKVSNRFSGVPDRFSGSGSGTDFTLKISRVEAEDVGVYYCSQNTHVPPTFGQGTKVEIERTVAAPSVFIFPPSDEQLKSGTASVVCLLNNFYPREAKVQWKVDNALQSGNSQESVTEQDSKDSTYSLSSTLTLSKADYEKHKVYACEVTHQGLSSPVTKSFNRGEC | 105 % of HeCon Ab (=100) | 
GpH7-A5/GpH7-B3 variant T335_06M/GpL16-k0 (antibody, human IgG1, kappa, mutation in one H chain only; also called He Ab T335_06M; T335M) heavy 1: not shown heavy 2: not shown light: DIVMTQSPLSLPVTPGEPASISCQASESLVHSNRNTYLHWYLQKPGQSPQLLIYKVSNRFSGVPDRFSGSGSGTDFTLKISRVEAEDVGVYYCSQNTHVPPTFGQGTKVEIERTVAAPSVFIFPPSDEQLKSGTASVVCLLNNFYPREAKVQWKVDNALQSGNSQESVTEQDSKDSTYSLSSTLTLSKADYEKHKVYACEVTHQGLSSPVTKSFNRGEC | 107 % of HeCon Ab (=100) | 
GpH7-A5/GpH7-B3 variant V266_19Q/GpL16-k0 (antibody, human IgG1, kappa, mutation in one H chain only; also called He Ab V266_19Q; V266Q) heavy 1: not shown heavy 2: not shown light: DIVMTQSPLSLPVTPGEPASISCQASESLVHSNRNTYLHWYLQKPGQSPQLLIYKVSNRFSGVPDRFSGSGSGTDFTLKISRVEAEDVGVYYCSQNTHVPPTFGQGTKVEIERTVAAPSVFIFPPSDEQLKSGTASVVCLLNNFYPREAKVQWKVDNALQSGNSQESVTEQDSKDSTYSLSSTLTLSKADYEKHKVYACEVTHQGLSSPVTKSFNRGEC | 100 % of HeCon Ab (=100) | 
GpH7-B3 variant A327_10E/GpL16-k0 (antibody, human IgG1, kappa, homodimerized; mutation in both H chains; also called Ho Ab A327_10E) heavy: not shown light: DIVMTQSPLSLPVTPGEPASISCQASESLVHSNRNTYLHWYLQKPGQSPQLLIYKVSNRFSGVPDRFSGSGSGTDFTLKISRVEAEDVGVYYCSQNTHVPPTFGQGTKVEIERTVAAPSVFIFPPSDEQLKSGTASVVCLLNNFYPREAKVQWKVDNALQSGNSQESVTEQDSKDSTYSLSSTLTLSKADYEKHKVYACEVTHQGLSSPVTKSFNRGEC |  | 148 % of control
GpH7-A5/GpH7-B3 variant S337_19Q/GpL16-k0 (antibody, human IgG1, kappa, mutation in one H chain only; also called He Ab S337_19Q; S337Q) heavy 1: not shown heavy 2: not shown light: DIVMTQSPLSLPVTPGEPASISCQASESLVHSNRNTYLHWYLQKPGQSPQLLIYKVSNRFSGVPDRFSGSGSGTDFTLKISRVEAEDVGVYYCSQNTHVPPTFGQGTKVEIERTVAAPSVFIFPPSDEQLKSGTASVVCLLNNFYPREAKVQWKVDNALQSGNSQESVTEQDSKDSTYSLSSTLTLSKADYEKHKVYACEVTHQGLSSPVTKSFNRGEC | 105 % of HeCon Ab (=100) | 
GpH7-A5/GpH7-B3 variant T335_10E/GpL16-k0 (antibody, human IgG1, kappa, mutation in one H chain only; also called He Ab T335_10E; T335E) heavy 1: not shown heavy 2: not shown light: DIVMTQSPLSLPVTPGEPASISCQASESLVHSNRNTYLHWYLQKPGQSPQLLIYKVSNRFSGVPDRFSGSGSGTDFTLKISRVEAEDVGVYYCSQNTHVPPTFGQGTKVEIERTVAAPSVFIFPPSDEQLKSGTASVVCLLNNFYPREAKVQWKVDNALQSGNSQESVTEQDSKDSTYSLSSTLTLSKADYEKHKVYACEVTHQGLSSPVTKSFNRGEC | 109 % of HeCon Ab (=100) | 
GpH7-B3 variant G236_09D/GpL16-k0 (antibody, human IgG1, kappa, homodimerized; mutation in both H chains; also called Ho Ab G236_09D) heavy: not shown light: DIVMTQSPLSLPVTPGEPASISCQASESLVHSNRNTYLHWYLQKPGQSPQLLIYKVSNRFSGVPDRFSGSGSGTDFTLKISRVEAEDVGVYYCSQNTHVPPTFGQGTKVEIERTVAAPSVFIFPPSDEQLKSGTASVVCLLNNFYPREAKVQWKVDNALQSGNSQESVTEQDSKDSTYSLSSTLTLSKADYEKHKVYACEVTHQGLSSPVTKSFNRGEC |  | 207 % of control
GpH7-B3 variant A330_01G/GpL16-k0 (antibody, human IgG1, kappa, homodimerized; mutation in both H chains; also called Ho Ab A330_01G) heavy: not shown light: DIVMTQSPLSLPVTPGEPASISCQASESLVHSNRNTYLHWYLQKPGQSPQLLIYKVSNRFSGVPDRFSGSGSGTDFTLKISRVEAEDVGVYYCSQNTHVPPTFGQGTKVEIERTVAAPSVFIFPPSDEQLKSGTASVVCLLNNFYPREAKVQWKVDNALQSGNSQESVTEQDSKDSTYSLSSTLTLSKADYEKHKVYACEVTHQGLSSPVTKSFNRGEC |  | 102 % of control
